Source: US20190184025A1

Key:
[1] = biological target: Mouse EphA2 Fc fusion (Mouse) (UniProt Q03145); test: SPR, mouse EphA2-Fc captured by anti-human IgG
[2] = biological target: Human EphA2, biotinylated (in house) (Human) (UniProt P29317); test: SPR, biotinylated human EphA2 on streptavidin
[3] = biological target: Mouse EphA2 (Ecto), C-terminal polyHis (Mouse) (UniProt Q03145); test: FP competition against Reference Compound C (Study 2)
[4] = biological target: Rat EphA2, biotinylated (in house) (Rat) (UniProt D3ZBN3); test: SPR, biotinylated rat EphA2 on streptavidin

Mouse EphA2 Fc fusion (Mouse), sequence (Q03145 26-535 limits assumed): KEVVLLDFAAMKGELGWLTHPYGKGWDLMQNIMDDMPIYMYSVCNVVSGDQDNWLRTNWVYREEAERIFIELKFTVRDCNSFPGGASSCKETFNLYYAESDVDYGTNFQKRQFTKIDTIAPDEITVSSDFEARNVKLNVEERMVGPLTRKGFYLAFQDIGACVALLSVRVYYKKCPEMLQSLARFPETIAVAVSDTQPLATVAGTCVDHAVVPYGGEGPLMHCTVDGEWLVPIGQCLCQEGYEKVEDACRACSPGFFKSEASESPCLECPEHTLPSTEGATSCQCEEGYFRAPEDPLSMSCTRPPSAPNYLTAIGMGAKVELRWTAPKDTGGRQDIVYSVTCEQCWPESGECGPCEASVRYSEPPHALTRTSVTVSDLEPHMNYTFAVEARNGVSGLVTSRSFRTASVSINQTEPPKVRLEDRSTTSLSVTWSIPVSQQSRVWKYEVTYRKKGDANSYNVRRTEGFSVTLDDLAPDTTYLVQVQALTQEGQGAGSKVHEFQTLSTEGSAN
Mouse EphA2 (Ecto), C-terminal polyHis (Mouse), sequence (Q03145 26-538): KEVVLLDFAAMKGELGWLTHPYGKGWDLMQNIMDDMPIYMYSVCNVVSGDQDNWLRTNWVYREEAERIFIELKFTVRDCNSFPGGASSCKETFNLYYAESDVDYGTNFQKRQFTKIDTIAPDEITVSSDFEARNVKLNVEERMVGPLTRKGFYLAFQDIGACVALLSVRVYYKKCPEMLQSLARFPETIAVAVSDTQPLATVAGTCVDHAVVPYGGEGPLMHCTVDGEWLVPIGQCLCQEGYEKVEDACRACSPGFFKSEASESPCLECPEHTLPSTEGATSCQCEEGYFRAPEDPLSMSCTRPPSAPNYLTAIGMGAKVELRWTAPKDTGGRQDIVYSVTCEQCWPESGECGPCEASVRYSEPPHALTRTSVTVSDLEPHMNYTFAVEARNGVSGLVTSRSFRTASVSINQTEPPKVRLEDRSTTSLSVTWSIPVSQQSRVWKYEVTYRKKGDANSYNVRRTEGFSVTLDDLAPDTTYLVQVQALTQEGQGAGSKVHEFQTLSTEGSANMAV

Kd [1]: 2.53 nM
t1/2 [1]: 10.4 min
Kd [2]: 1.17 nM
t1/2 [2]: 10 min
Ki [3]: 5.5 nM
Kd [4]: 2.96 nM
t1/2 [4]: 12.6 min
Substance: BCY6136 (peptide)
